For 19 sequences, protein production results are on record in a protein production outcome set (Wang et al. 2014).

This data set can be described thus: label from the status in PepcDB records.

For the sequence “MPGIDKLPIEETLEDSPQTRSLLGVFEEDATAISNYMNQLYQAMHRIYDAQNELSAATHLTSKLLKEYEKQRFPLGGDDEVMSSTLQQFSKVIDELSSCHAVLSTQLADAMMFPITQFKERDLKEILTLKEVFQIASNDHDAAINRYSRLSKKRENDKVKYEVTEDVYTSRKKQHQTMMHYFCALNTLQYKKKIALLEPLLGYMQAQISFFKMGSENLNEQLEEFLANIGTSVQNVRREMDSDIETMQQTIEDLEVASDPLYVPDPDPTKFPVNRNLTRKAGYLNARNKTGLVSSTWDRQFYFTQGGNLMSQARGDVAGGLAMDIDNCSVMAVDCEDRRYCFQITSFDGKKSSILQAESKKDHEEWICTINNISKQIYLSENPEETAARVNQSALEAVTPSPSFQQRHESLRPAAGQSRPPTARTSSSGSLGSESTNLAALSLDSLVAPDTPIQFDIISPVCEDQPGQAKAFGQGGRRTNPFGESGGSTKSETEDSILHQLFIVRFLGSMEVKSDDHPDVVYETMRQILAARAIHNIFRMTESHLLVTCDCLKLIDPQTQVTRLTFPLPCVVLYATHQENKRLFGFVLRTSSGRSESNLSSVCYIFESNNEGEKICDSVGLAKQIALHAELDRRASEKQKEIERVKEKQQKELNKQKQIEKDLEEQSRLIAASSRPNQASSEGQFVVLSSSQSEESDLGEGGKKRESEA”, the protein production result was “failed”. With “MPGKKQEVQEELLEEQLEKAYQGRINNIKESFAGVLSVLKTANTKKLERITARSHNYLGLLHMIQGNHIKSITHSRQALEYFQRVQSLKDIADAKFNIASSLYKTDNFHDGLKGLLECRQIYKSIGEGRSECRSLKSIATIYEYWSDVNKAFLIYQECIDLATRHGDLAMLSNVYNPMSGLYLKRGDIETATKLSDKSIAIKKKIKDERGLAYSIYGKGKVFFAQQKFAQAETYFLQSLELQQKFGDKLGAGMVLNKLGLTYVEQKKYLQAEKILKQAVSLAEKHNVKVNVYKSYYSLYTLYKLQHKESNALQCLEQFVLHKENNVQSHTSDIIRSYEAANEIYRLEKDTKAQIDYLEIVQKKNTELDSFFYRVSHDLKGPISSLLGLNELIEKEQFDGEALKYFNMYKKLSTRIDAIVMDLITITRISSDKIVPVKIDFMQLIEDCIHSYAYFDNFEHIQFNIEVEEGISFQSEWVIVNTILQNLIENSIKYMRHDVKKPYVFIQVYTQGQMLCIKVTDNGQGISEEYQEKIYEMFFRANDKADGSGLGLYILKRAVERLQGTVSLKSKPGKGAAFTVCIKGE”, the protein production entry is on record as “failed”. With “MPGKREMQKCSLITVLSLSVLMLAGCTTTYTMTTRTGEIIETQGKPEVDTATGMTKYADVYGYHRVMKTSEIVQTTEGASKLDWLEHHHHHH” the entry was “not failed”; with “MPGTGLPIRGRRDPETIETRCLNNDQDSRLALIHAWLQTLPGSLGLRPETMEPASSDASFRRYFRLQAAAGTLIVMDAPPPHEDVRPFVHIDGLLREAGVNVPEIVAQDAGQGLLLLSDLGQDTFYQRIRAGISDAQLQSMYRDTLATLVRLQQASTAGLPAYDGARLAAELELFPEWYVGRHHGVTLDDKTAAALRQIFGLLAAEGDTGHRVLVHRDFHSPNLMVCDEPRYGPNPGVIDFQDALAGPLTYDLASLVTDARTTWEEPQQLDWAIRYWELARAAGLPVDADFAQFHRAYEWTGLQRNLRILGVFARLNHRDGKSIYLSHMPRVSGYVRQVAQRYGAFAPLLRLLDKLDDRQVQVGYTF”, “failed”; with “MPGTNNEATRKEEVKKIVENRRRKAELIREQQIKKRNTIIAIGVGILVVLILVMVLAKSCSSGKKPAKTSATTAKQITTVAQTTVQETTTAEEYMYTTDVLNLRKSASAKSKLITQIGAGKKVQVISENGKWCQIKYGKDTGYVMKKYLSYSNMLD”, “failed”.

Turning to “MPGVTVKDIDQHAVTKAVAVFLKKTGKLKVPDQMDIVKTAKFKELAPYDPDWFYVRCASILRHLYHRSPAGVGSITKIYGGRKRNGVHPSHFCRAADGAARKALQALEHARLVEKHPDGGRKLSSIGQRDLDRIANQIVFKQRDAAKQTGPIVISK”, the protein production result is reported as “failed”. With “MPHAARSDAAALRAPAADDGAYGKPAIALHWIIALLIFAAFGLGLYMTDIPGFTPTKLKLYSYHKWAGITVLILAVLRVLWRLTHPAPAPVAGMPAWQQKAAEGAHIVLYLLILAVPLTGYLLSVAAGIKVVYLGLWELPMPFDKSDALKEIFQVAHEWLNWTMATIVVLHILAALKHHIVDSDGTLRRMLPFLR” the entry was “failed”; with “MPHAVQGQPENAVHPPQGTAWPGLEPPEGFLMANPRLSRRHVRRMRSERPPPTTRPPDWRFPMKSTLNLLLTVSLALSGAGLAQTAPNVPTQAAPTTAAPANAAQLAAEARDLTNRARTTYPAGSASIDQPLWKQAADRAEAAVSAAPNNPDVLRLRAQIYTEVGFWKQAESSWRAYFAVAPVAAGQNEARAAGNVQYNLGYAAYTRGQSAQAAAYFKACLTLDPQSVPCATWAARTALESGDYALAQNLYTQALSLAPTDKTLNYFAQVARNASTYGPAATQAFSRAYASLDAGRRAEALAGFQEAARSAPNFPEAQREAGRLALEAGDTGAALSAYQALAALPGATDSDRYNLGLAQEGQQYGLRAVQTFRTAYGKYSAGDKAGAEAGFLQATTASANYGKAWAWLGRVRYEAKNYAGAAEAYGRAVALDPGDKTSAYFLKLAQQGK”, “failed”. With “MPHKLLPWLAIASAMSAFTLQAQPMPDTELLMGSYTQGKSEGIYRFGFNSQTGLIDAKPLQVIKSDNPSWLTLSKDQRHLFAVNENGPGQKDVVGKVSSFAIDPKTRQITPINQVQSRGEEPTHSSLSYDGRYLFVANYAVNPDPGGALTVVPVGKDGTLSEAVQVLPLGPGSKVNSERQLSSHVHLAVPTPDNKYVVSADLGADKLFVYRYDANQAKPLQPAKVPTVQLPGGSGPRHTLFSADGKHAWLVLEMTAQVAVFDYHDGGFKQTQLVDMKNKGVEEKNGGGALHTSPDGKFLYVTNRGDANQVVVFRIDQASGKLEEIQRRSLEGKEPREFAFDPTGKFMLFANQKSNQIVTVRRDPQSGMIGDTVQKFDADSPSYLRFLTEK” the entry was “failed”.

Regarding “MPHPFVYHDCPMSRLLFRYICTETAVPFALGLTVFTFVLLMGRLLKLAEMVFARGVPFLDVTRLILYMLPSFFLVAIPMAFLLAVLLAMGRLSADSEVTAMKASGMSIGTIAVPVIAFGVITYAATTFVSVYALPWGNTAFKKFLHGVIETRAAMSITEKVFNDEFPGLVIYVDGFDPKSGRISGILIHDERNPDEPSTIFAASGQLATNPEERIVRLRLNNGGIHRGIGTGGYRLVEFTSYDLSIALQREQQKARLNEEDMTLGELLARMKSPGEQPKLVREMHFELHKRFALPFACVVFAVIAVPLGIQNQRSGRAGGFAAGIILLMLYYILMSAGKTVNEKGIAPAFVAVWIPNVLFLGLGIFLLKRAALDRAIPLAEYVTTALAWVRHRFERRKT”, the protein production result is “failed”. With “MPHSTTEPRRDMPDALISIVIPCRNEAANLPLLIDEIEAAMAGRHFELIIVNDGSTDETAAVLTEQAALRSFPVRELRHQKSAGQSLSVRSGAWAARGGIVATIDGDGQNDPQYIPVLVDALRQAGPDFGAAQGQRLKRRDSKVKQLASRFANWLRNAILHDETRDTGCGLKAVHTEILRKLPFFDGTHRFVPALVIQEGYRVVHCDVVDRSRRHGKSNYGIFDRGLQGALDLGGVWWLRRRRRRMPKVEEIKRV” the entry was “failed”; with “MPIAGIPYTEIVMAIVAFVLGFLVGYLIKNVIKIGIIVLAIIVILIAIGVVSPHTVVSGLQSMGVYATQAEQYVSRIINYLPYNSILFIIGFVIGLVKG”, “failed”; with “MPIRDDISWPPSAVCSVSLILHLPGRFGHVSVAHLLLDHGADVNAQNRLGASVLTVASRGGHLGVVKLLLEAGAFVDHHHPSGEQLGLGGSRDEPLDITALMAAIQHGHEAVVRLLMEWGADPNHAARTVGWSPLMLAALTGRLGVAQQLVEKGANPDHLSVLEKTAFEVALDCKHRDLVDYLDPLTTVRPKTGQAACPPWLHRGPQIVFMWLKLRIALLEGHAELRVQPCRPLRLRKWCA”, “not failed”.

“MPKIRIRKFWPSGAGTVPGVLLIALALGCVGHRAKFADETFSSDEAEIRSAVEPLPPKAQLVYLVLAGELAGQRGRYEVALEHYLQAARLSRDGRLAERAMQIALFIKKYPEAVESVALWLKAEPRHAGARRMATLLYLKEGRRDEAVTQMKVLLTLPDADLENTLIELVKVLGNEVPRQDATEFMDALLRAFPAMADLHFAAALLAANQGEFQQALSETEEALKLHPDWGRARVLQAQVMAQMGDSATAGDLIQRALKRDPDNARLRLIYSQFLIKSGDIEGARRELERIVAKEPGNQDARFGLGLALIDLGRLDAARREFAALAASEKWRVQAYFYLGLIDARKGRLNEALDWFDRVTTGPTEFDARVNGITVLISLGRLTEARTRLADIRRRFPNESVRLYLLEAELLSKNRDYEDAFNLLTDALGENPGQSDLLYARALVAENLGRFDVLEADLRQVLEKSPDDPNALNALGYTLVERGERLDEAKGYLDRAIRLKPDDPAILDSYGWLLYRLRKYAEAIEYLRRAYDKVQDPEIASHLGEVLMESGRRQEARKILREAWKKAPEHEDMQRIRARYPELLAP”: the protein production result is reported as “failed”. For “MPKKGSRPDRPSRRCARMTSTVPALGTRSAEGSALQAVLLDMDGTLVDTEGFWWDVEAEVFAALGHPLDESWRHVVVGGPMARSAGFLIEATGADITLAELTVLLNDGFEARIGRTLPLMPGAARLLAELAAHEIPTALVSASHRRIIDRVLTSLGSQHFALTVAGDEVARTKPFPDPYLLAASGLGAEPARCAVIEDTATGVAAAEAAGCRVVAVPSVAPIAPAARRTVVTSLEEVDLPFLRGLMTEMR”, the protein production result is listed as “failed”. With “MPKKVVPEEARRRRRPTRQGAVLSEGLIVRTALRMLREHGTGGLTARRLGAALGADPSTLYRYFAGMDDLARAVGNELMGQALDGWTAQGDWRADLRSLGLALHSSYLAHPQAAVLTASRVSGRPREIAVDEAILGLLRGAGLTDRAAVRFYHAFIDLALAFAALDAGSLALPEEARRSDEDMWGTTYARLPAETHPNIAATAERLAARMPHSAYPVVLDTLLDGIAAELTGTAPEM” the entry was “not failed”; with “MPKPLRCITIAFTDLPNEYKIVLGYLTYHSGRLFNQALYSIKTKQAKVNTYDLYNKLKDNSLHLKNLQSRCAQIVLDELVRAFKNWFEFLHNPEKFKGQEVKPPKFRPKNKPHRTITYDQTGFKVVGTKIRLSLSKALRQWLKEKHGIELKYLWLDTGLELDERLIKNIQIVPKANAKEFELHIIYEKPQNGEKLLKQDKVMVLDPNSSNFFAIVIEGIPQPYIIDGNGLKSLLRKYLKKIASLQSRLEGAKKKGFLTHFLEERISRLWLKVKRLLKHYAHTISNLILELALKYGVRKIYIGDAARNKNKESKLSSVADQIWSLLPHGKVKEYLEYKAKEYGIEVEYISEAYTSGVDSSVEGAVNKETYTPEARVKRGLFRTRLLGFLNADVNACRNLLKKLGKFDLISGILRPIRLRVFFKLRESSSAIPLYGGIGRSRGGVNLPVVVRHSKEGVNPPEAPHL”, “failed”. “MPKSADQGGSPASASHEALRHILDAGASMGGLQGLDEAQQQALYAIGHGAYEQGRYADALKMFCLLVACDPLEARYLLALGAAAQELGLYEHALQQYAAAAALQLDSPRPLLHGAECLYALGRRRDALDTLDMVLELCGSPERAALRERAELLRRSYARAD”: the protein production entry is reported as “failed”.

Regarding “MPKVSVVIPAYNAMPYLPETLESVLRQTYHDFEVVVVNDGSSDNTEEWVSQILDPRLKLISQANQGLAGARNTGIVNASGEYIAFLDADDIWEPTKLAKQVSVLDENPTVGLVYTWVAYIDEQGKSTGKIFKNQVEGYVWPQLTEHNIVECGSVALVRRVCFEKMGLFDRNLGSYVEDWDMWLRIATSYDFKVVKEALVYYRQRSNSASKNWEAMAHSFAIVIEKAFATASQDLQVLKNKSYGFTYLCLAWKPLQSFQKDYQKSREFCQQAVAYYPSLRFSQEYIRLSIAINLMRWFGADGYSKLLPLFHTMRRVKLALQK”, the protein production entry was “failed”.
